Biological target: T1, CasEnd-12 (synthetic construct)
T1 chain: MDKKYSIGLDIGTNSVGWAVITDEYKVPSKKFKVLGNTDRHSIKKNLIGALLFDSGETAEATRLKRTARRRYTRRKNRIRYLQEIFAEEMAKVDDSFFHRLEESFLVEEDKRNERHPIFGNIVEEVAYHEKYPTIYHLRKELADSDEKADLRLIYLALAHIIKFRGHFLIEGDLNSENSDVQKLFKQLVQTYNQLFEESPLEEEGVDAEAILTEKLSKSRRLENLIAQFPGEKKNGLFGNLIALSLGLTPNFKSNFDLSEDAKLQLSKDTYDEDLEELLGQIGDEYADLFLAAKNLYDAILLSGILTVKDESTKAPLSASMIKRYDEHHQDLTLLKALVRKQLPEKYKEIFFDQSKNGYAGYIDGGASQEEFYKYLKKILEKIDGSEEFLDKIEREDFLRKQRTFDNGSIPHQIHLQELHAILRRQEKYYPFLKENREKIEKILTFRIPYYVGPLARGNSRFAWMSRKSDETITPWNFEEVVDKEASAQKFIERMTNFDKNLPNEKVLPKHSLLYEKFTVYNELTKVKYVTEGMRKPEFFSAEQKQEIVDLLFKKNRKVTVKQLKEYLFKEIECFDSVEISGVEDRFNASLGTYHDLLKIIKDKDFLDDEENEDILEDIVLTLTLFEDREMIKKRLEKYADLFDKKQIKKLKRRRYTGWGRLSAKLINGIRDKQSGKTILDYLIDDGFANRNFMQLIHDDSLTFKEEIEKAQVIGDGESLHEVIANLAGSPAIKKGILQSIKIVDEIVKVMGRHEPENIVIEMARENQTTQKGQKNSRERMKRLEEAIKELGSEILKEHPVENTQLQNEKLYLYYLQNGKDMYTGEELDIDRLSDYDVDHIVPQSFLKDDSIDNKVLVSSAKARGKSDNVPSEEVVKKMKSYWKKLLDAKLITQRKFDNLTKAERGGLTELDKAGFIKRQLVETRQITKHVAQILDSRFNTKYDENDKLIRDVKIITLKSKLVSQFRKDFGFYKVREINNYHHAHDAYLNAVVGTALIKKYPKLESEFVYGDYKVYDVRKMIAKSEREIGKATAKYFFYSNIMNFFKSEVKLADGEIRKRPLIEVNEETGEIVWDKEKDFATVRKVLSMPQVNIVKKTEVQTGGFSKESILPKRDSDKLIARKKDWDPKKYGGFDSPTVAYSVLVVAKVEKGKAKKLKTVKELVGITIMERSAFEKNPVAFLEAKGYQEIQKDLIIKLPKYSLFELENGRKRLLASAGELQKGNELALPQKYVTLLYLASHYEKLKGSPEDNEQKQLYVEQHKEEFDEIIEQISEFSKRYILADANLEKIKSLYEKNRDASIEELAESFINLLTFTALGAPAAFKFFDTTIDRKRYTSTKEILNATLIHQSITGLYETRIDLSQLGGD
Experiment: cell_activity; +++; HEK293T; PAM not stated
Method in brief: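 Editing activity was scored as the fraction of GFP+ cells on day 4 by flow cytometry. BFP-expressing HEK293T cells (250,000) received by nucleofection 200 ng plasmid for the RT-Cas fusion protein and 200 ng template RNA plasmid designed to convert BFP to GFP.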

B1: BFP-to-GFP template RNA ; BFP reporter protospacer (ssRNA ; dsDNA)
RNA: GCCGAAGCACUGCACGCCGUGUUUUAGAGCUAGAAAUAGCAAGUUAAAAUAAGGCUAGUCCGUUAUCAACUUGAAAAAGUGGCACCGAGUCGGUGCACCCUGACGUACGGCGUGCAGUGCUU
DNA 1: GCCGAAGCACTGCACGCCGT
DNA 2: ACGGCGTGCAGTGCTTCGGC
For B1, the activity was ≥ 100 % of reference.

From US20250092426, “CAS ENDONUCLEASES AND RELATED METHODS” (Flagship Pioneering Innovations VII, LLC, published 2025)
